# In the supplement of paper PMC9112550, “Optimization of the antimicrobial peptide Bac7 by deep mutational scanning” (BMC Biology, 2022):
# System: Escherichia coli TOP10
# Test: shrunken log2 fold change of peptide-encoding DNA abundance (4.5 h post-induction vs induction); higher = less antimicrobial activity (less host growth inhibition)
# Conditions: time post-induction: 4.5 h; library: site-saturation at positions 5, 18, 19, 20
# 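Also: peptides expressed intracellularly from a pBAD plasmid library in pooled LB shake-flask culture, induced with 0.3% L-arabinose, DNA abundance read by NGS, three biological replicates, DESeq2 with apeglm shrinkage.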
row,Sequence,shrunken log2 fold change
1,RRIRKRPPRLPRPRPRPSGRPRP,0.288
2,RRIRKRPPRLPRPRPRPSHPPRP,0.146
3,RRIRKRPPRLPRPRPRPSILPRP,-0.11
4,RRIRKRPPRLPRPRPRPSIVPRP,-0.059
5,RRIRKRPPRLPRPRPRPSIWPRP,-0.0618
6,RRIRKRPPRLPRPRPRPSKWPRP,-0.119
7,RRIRKRPPRLPRPRPRPSLEPRP,0.286
8,RRIRKRPPRLPRPRPRPSLSPRP,0.549
9,RRIRKRPPRLPRPRPRPSMFPRP,-0.15
10,RRIRKRPPRLPRPRPRPSMPPRP,0.0159
11,RRIRKRPPRLPRPRPRPSMYPRP,-0.306
12,RRIRKRPPRLPRPRPRPSNWPRP,-0.00865
13,RRIRKRPPRLPRPRPRPSPFPRP,0.0443
14,RRIRKRPPRLPRPRPRPSPMPRP,0.132
15,RRIRKRPPRLPRPRPRPSPYPRP,-0.0694
16,RRIRKRPPRLPRPRPRPSQKPRP,0.0284
17,RRIRKRPPRLPRPRPRPSQNPRP,0.269
18,RRIRKRPPRLPRPRPRPSRGPRP,0.741
19,RRIRKRPPRLPRPRPRPSRSPRP,0.0164
20,RRIRKRPPRLPRPRPRPSSMPRP,-0.0241
21,RRIRKRPPRLPRPRPRPSTMPRP,-0.145
22,RRIRKRPPRLPRPRPRPSVDPRP,0.0884

row,Sequence,shrunken log2 fold change
1,RRIRKRPPRLPRPRPRPSWQPRP,-0.212
2,RRIRKRPPRLPRPRPRPTAMPRP,0.358
3,RRIRKRPPRLPRPRPRPTCQPRP,0.333
4,RRIRKRPPRLPRPRPRPTDLPRP,0.0464
5,RRIRKRPPRLPRPRPRPTDQPRP,0.536
6,RRIRKRPPRLPRPRPRPTEAPRP,0.77
7,RRIRKRPPRLPRPRPRPTEIPRP,0.162
8,RRIRKRPPRLPRPRPRPTGIPRP,0.0402
9,RRIRKRPPRLPRPRPRPTIGPRP,0.0992
10,RRIRKRPPRLPRPRPRPTINPRP,-0.184
11,RRIRKRPPRLPRPRPRPTKPPRP,0.221
12,RRIRKRPPRLPRPRPRPTKYPRP,-0.106
13,RRIRKRPPRLPRPRPRPTLQPRP,0.594
14,RRIRKRPPRLPRPRPRPTLTPRP,0.283
15,RRIRKRPPRLPRPRPRPTNPPRP,0.155
16,RRIRKRPPRLPRPRPRPTNRPRP,-0.0262
17,RRIRKRPPRLPRPRPRPTPFPRP,0.113
18,RRIRKRPPRLPRPRPRPTPWPRP,0.798
19,RRIRKRPPRLPRPRPRPTPYPRP,0.235
20,RRIRKRPPRLPRPRPRPTQDPRP,1.3
21,RRIRKRPPRLPRPRPRPTRAPRP,1.2
22,RRIRKRPPRLPRPRPRPTRNPRP,0.547

row,Sequence,shrunken log2 fold change
1,RRIRKRPPRLPRPRPRPTSSPRP,0.0586
2,RRIRKRPPRLPRPRPRPTSTPRP,0.489
3,RRIRKRPPRLPRPRPRPTSYPRP,-0.152
4,RRIRKRPPRLPRPRPRPTWPPRP,0.766
5,RRIRKRPPRLPRPRPRPTWQPRP,0.58
6,RRIRKRPPRLPRPRPRPTYHPRP,-0.283
7,RRIRKRPPRLPRPRPRPTYQPRP,-0.191
8,RRIRKRPPRLPRPRPRPVAGPRP,0.127
9,RRIRKRPPRLPRPRPRPVCAPRP,0.904
10,RRIRKRPPRLPRPRPRPVCDPRP,0.683
11,RRIRKRPPRLPRPRPRPVDHPRP,0.147
12,RRIRKRPPRLPRPRPRPVECPRP,0.22
13,RRIRKRPPRLPRPRPRPVGFPRP,0.485
14,RRIRKRPPRLPRPRPRPVGGPRP,0.544
15,RRIRKRPPRLPRPRPRPVHLPRP,-0.0295
16,RRIRKRPPRLPRPRPRPVHNPRP,-0.0446
17,RRIRKRPPRLPRPRPRPVIAPRP,0.437
18,RRIRKRPPRLPRPRPRPVLKPRP,0.185
19,RRIRKRPPRLPRPRPRPVLTPRP,0.342
20,RRIRKRPPRLPRPRPRPVMHPRP,-0.0631
21,RRIRKRPPRLPRPRPRPVMKPRP,0.535
22,RRIRKRPPRLPRPRPRPVQAPRP,0.741

row,Sequence,shrunken log2 fold change
1,RRIRKRPPRLPRPRPRPVQDPRP,0.295
2,RRIRKRPPRLPRPRPRPVQGPRP,-0.0824
3,RRIRKRPPRLPRPRPRPVQLPRP,0.349
4,RRIRKRPPRLPRPRPRPVQWPRP,0.743
5,RRIRKRPPRLPRPRPRPVRMPRP,0.0401
6,RRIRKRPPRLPRPRPRPVSEPRP,0.189
7,RRIRKRPPRLPRPRPRPVTAPRP,0.147
8,RRIRKRPPRLPRPRPRPVTNPRP,-0.0569
9,RRIRKRPPRLPRPRPRPVVWPRP,0.602
10,RRIRKRPPRLPRPRPRPVVYPRP,-0.266
11,RRIRKRPPRLPRPRPRPWAIPRP,0.14
12,RRIRKRPPRLPRPRPRPWAQPRP,0.315
13,RRIRKRPPRLPRPRPRPWAWPRP,-0.00174
14,RRIRKRPPRLPRPRPRPWCAPRP,0.113
15,RRIRKRPPRLPRPRPRPWCRPRP,-0.189
16,RRIRKRPPRLPRPRPRPWDRPRP,0.394
17,RRIRKRPPRLPRPRPRPWEEPRP,-0.000921
18,RRIRKRPPRLPRPRPRPWGCPRP,0.131
19,RRIRKRPPRLPRPRPRPWGGPRP,0.407
20,RRIRKRPPRLPRPRPRPWHYPRP,0.0725
21,RRIRKRPPRLPRPRPRPWKIPRP,-0.00192
22,RRIRKRPPRLPRPRPRPWKRPRP,0.024

row,Sequence,shrunken log2 fold change
1,RRIRKRPPRLPRPRPRPWLLPRP,0.0409
2,RRIRKRPPRLPRPRPRPWMFPRP,-0.000428
3,RRIRKRPPRLPRPRPRPWMVPRP,0.0578
4,RRIRKRPPRLPRPRPRPWPPPRP,0.56
5,RRIRKRPPRLPRPRPRPWQKPRP,0.121
6,RRIRKRPPRLPRPRPRPWRTPRP,0.379
7,RRIRKRPPRLPRPRPRPWSGPRP,0.104
8,RRIRKRPPRLPRPRPRPWSHPRP,0.0601
9,RRIRKRPPRLPRPRPRPWSNPRP,0.202
10,RRIRKRPPRLPRPRPRPWTPPRP,0.246
11,RRIRKRPPRLPRPRPRPWTYPRP,0.0938
12,RRIRKRPPRLPRPRPRPWVEPRP,0.104
13,RRIRKRPPRLPRPRPRPWVVPRP,0.423
14,RRIRKRPPRLPRPRPRPWWAPRP,-0.287
15,RRIRKRPPRLPRPRPRPWWVPRP,0.404
16,RRIRKRPPRLPRPRPRPWYEPRP,-0.0672
17,RRIRKRPPRLPRPRPRPYCAPRP,-0.254
18,RRIRKRPPRLPRPRPRPYCEPRP,-0.102
19,RRIRKRPPRLPRPRPRPYDEPRP,-0.293
20,RRIRKRPPRLPRPRPRPYEVPRP,-0.205
21,RRIRKRPPRLPRPRPRPYFDPRP,-0.383
